According to US20260137783A1 (CRISPR THERAPEUTICS, published 2026):

B1: Anti-CD117 VHH P35 (monovalent form) (VHH)
VHH: QVQLVESGGGLVQAGGSLRLSCAASGGTFSIYPVGWFRQAPGKQREFVAAIGWSASGTYYGDSVEGRFTVSRDNARSTVYLRMSSLKPDDTAVYYCAAASGSNWRLGAIDEYDSWGQGTQVTVSS
notes: Secreted from Expi293 cells
B2: Anti-CD117 VHH P10 (monovalent form) (VHH)
VHH: QVQLVESGGGLVQAGGSLRLSCVASGRTFSSYAMGWFRQGPGKEREFAAAILSNGLTTYYADSVKGRFTISRDNAKDTVYLQMNSLKPEDTANYYCAAAFTPEFRDGGIWDDASVDYWGQGTQVTVSS
notes: Secreted from Expi293 cells
B3: Anti-CD117 VHH P29 (monovalent form) (VHH)
VHH: QVHLVESGGGLVQAGGSLGLSCAASGHTFSNYAMGWFRQAPGKEREFVAAISWSGGSTLYADSVKGRFTISRDNGENTVYLQMNSLKPEDTAVYYCALDSTGVYGTGYVSSRKGRYEYWGQGTLVTVSS
notes: Secreted from Expi293 cells
B4: Anti-CD117 VHH P31 (monovalent form) (VHH)
VHH: EVQLVESGGGLVRAGGSLRLSCAASGRTFTYDARAWFRQAPGKEREFVAAISWSGGSTYYPNSMKGRFTISRDNAKNTVYLQMNSLKPEDTAVYYCAADESFPAYYSDYALYRYWGQGTLVTVSS
notes: Secreted from Expi293 cells
B5: Anti-CD117 VHH P27 (monovalent form) (VHH)
VHH: EVQLVESGGGLVRAGGSLRLSCAASGRTTFSTYWLGWFRQAPGKNREFVAAISWSAGMAYYQDSKGRFTISRDNTKNTAYLQMNSLQPEDTAVYYCAAGRFHPIRVDTALYWAQGTQVTVSS
notes: Secreted from Expi293 cells
B6: Anti-CD117 VHH P12 (monovalent form) (VHH)
VHH: QVQLVESGGGLVQAGGSLRLSCTASGDTFSSYSMGWFRQGPGKEREFVGGIRWSGGTTYYADSVKGRFTISRDNAKNTVYLQMNSLKREDTAVYYCAAVRRRWLIWQEEEYDYWGQGTLVTVSS
notes: Secreted from Expi293 cells
B7: Anti-CD117 VHH P38 (monovalent form) (VHH)
VHH: EVQLVESGGGLVQAGGSLRLSCAASGRTSGSYVMGWFRQAPGKEREFVAAISWSAGMTYYADSVKGRFTISRDNAKNTVYLQMNSLKPEDTAVYYCAADQRGVPAYYSDYALYDYWGQGTQVTVSS

Molecular target: T1, Cell surface CD117 on CD117+ cells (SKMEL / SKMEL-3 cells, CD34+ cells / HSPCs, Kasumi-1 cells) (UniProt P10721 26-976, limits assumed)
T1 construct: whole, on cells; also called cKIT; C-kit
T1 sequence (P10721 26-976 limits assumed): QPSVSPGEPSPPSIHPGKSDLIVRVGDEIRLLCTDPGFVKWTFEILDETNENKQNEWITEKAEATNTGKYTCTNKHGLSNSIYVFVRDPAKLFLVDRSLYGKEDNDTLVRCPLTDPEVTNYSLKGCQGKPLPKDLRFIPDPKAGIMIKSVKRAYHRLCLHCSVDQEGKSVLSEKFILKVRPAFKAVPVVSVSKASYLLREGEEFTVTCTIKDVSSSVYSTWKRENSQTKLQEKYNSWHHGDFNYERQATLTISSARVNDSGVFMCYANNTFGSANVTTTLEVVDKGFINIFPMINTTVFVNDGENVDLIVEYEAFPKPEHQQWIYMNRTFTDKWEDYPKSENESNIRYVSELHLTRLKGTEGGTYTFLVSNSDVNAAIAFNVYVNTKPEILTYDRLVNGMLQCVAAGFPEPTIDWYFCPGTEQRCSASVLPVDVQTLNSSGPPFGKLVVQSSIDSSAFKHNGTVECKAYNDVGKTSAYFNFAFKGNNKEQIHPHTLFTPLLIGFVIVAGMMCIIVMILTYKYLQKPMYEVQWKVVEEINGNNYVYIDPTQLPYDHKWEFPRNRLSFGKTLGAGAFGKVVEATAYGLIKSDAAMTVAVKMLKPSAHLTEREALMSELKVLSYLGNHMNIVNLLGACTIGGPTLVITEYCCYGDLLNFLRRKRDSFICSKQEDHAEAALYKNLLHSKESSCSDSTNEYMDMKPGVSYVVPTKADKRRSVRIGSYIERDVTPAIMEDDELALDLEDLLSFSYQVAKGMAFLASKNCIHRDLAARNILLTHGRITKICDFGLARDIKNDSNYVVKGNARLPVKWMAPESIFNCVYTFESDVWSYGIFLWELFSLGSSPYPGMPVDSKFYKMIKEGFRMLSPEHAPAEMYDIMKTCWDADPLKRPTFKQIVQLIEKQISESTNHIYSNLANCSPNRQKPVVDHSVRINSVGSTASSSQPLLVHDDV
Experiment: flow cytometry on SKMEL cells and CD34 cells (both CD117+)

Binding result, binds:
B1, B2, B3, B4, B5, B6, B7
